Laboratory results published in paper PMC7017424, “Effects of Substrate-Binding Site Residues on the Biochemical Properties of a Tau Class Glutathione S-Transferase from Oryza sativa” (Genes, 2019).

T1: OsGSTU17 (Oryza sativa, UniProt Q93WY5)
T1 construct: about 25 kDa subunit; dimeric enzyme; mutants L112A and W165A expressed at 20 °C
T1 sequence (Q93WY5 1-223): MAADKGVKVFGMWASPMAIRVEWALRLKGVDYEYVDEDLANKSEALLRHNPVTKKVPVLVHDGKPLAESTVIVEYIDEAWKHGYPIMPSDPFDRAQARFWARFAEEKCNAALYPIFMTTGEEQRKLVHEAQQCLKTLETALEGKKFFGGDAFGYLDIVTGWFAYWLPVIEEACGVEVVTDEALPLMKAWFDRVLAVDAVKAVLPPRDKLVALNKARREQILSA

B1: OsGSTU17 (Oryza sativa Japonica Group; W161A) (protein)
chain: MAADKGVKVFGMWASPMAIRVEWALRLKGVDYEYVDEDLANKSEALLRHNPVTKKVPVLVHDGKPLAESTVIVEYIDEAWKHGYPIMPSDPFDRAQARFWARFAEEKCNAALYPIFMTTGEEQRKLVHEAQQCLKTLETALEGKKFFGGDAFGYLDIVTGAFAYWLPVIEEACGVEVVTDEALPLMKAWFDRVLAVDAVKAVLPPRDKLVALNKARREQILSA
notes: about 25 kDa subunit; dimeric enzyme; mutants L112A and W165A expressed at 20 °C
B2: OsGSTU17 (Oryza sativa Japonica Group; N109A) (protein)
chain: MAADKGVKVFGMWASPMAIRVEWALRLKGVDYEYVDEDLANKSEALLRHNPVTKKVPVLVHDGKPLAESTVIVEYIDEAWKHGYPIMPSDPFDRAQARFWARFAEEKCAAALYPIFMTTGEEQRKLVHEAQQCLKTLETALEGKKFFGGDAFGYLDIVTGWFAYWLPVIEEACGVEVVTDEALPLMKAWFDRVLAVDAVKAVLPPRDKLVALNKARREQILSA
notes: as for B1
B3: OsGSTU17 (Oryza sativa Japonica Group; L112A) (protein)
chain: MAADKGVKVFGMWASPMAIRVEWALRLKGVDYEYVDEDLANKSEALLRHNPVTKKVPVLVHDGKPLAESTVIVEYIDEAWKHGYPIMPSDPFDRAQARFWARFAEEKCNAAAYPIFMTTGEEQRKLVHEAQQCLKTLETALEGKKFFGGDAFGYLDIVTGWFAYWLPVIEEACGVEVVTDEALPLMKAWFDRVLAVDAVKAVLPPRDKLVALNKARREQILSA
notes: as for B1
B4: OsGSTU17 (Oryza sativa Japonica Group; M17A) (protein)
chain: MAADKGVKVFGMWASPAAIRVEWALRLKGVDYEYVDEDLANKSEALLRHNPVTKKVPVLVHDGKPLAESTVIVEYIDEAWKHGYPIMPSDPFDRAQARFWARFAEEKCNAALYPIFMTTGEEQRKLVHEAQQCLKTLETALEGKKFFGGDAFGYLDIVTGWFAYWLPVIEEACGVEVVTDEALPLMKAWFDRVLAVDAVKAVLPPRDKLVALNKARREQILSA
notes: as for B1
B5: OsGSTU17 (Oryza sativa Japonica Group; F162A) (protein)
chain: MAADKGVKVFGMWASPMAIRVEWALRLKGVDYEYVDEDLANKSEALLRHNPVTKKVPVLVHDGKPLAESTVIVEYIDEAWKHGYPIMPSDPFDRAQARFWARFAEEKCNAALYPIFMTTGEEQRKLVHEAQQCLKTLETALEGKKFFGGDAFGYLDIVTGWAAYWLPVIEEACGVEVVTDEALPLMKAWFDRVLAVDAVKAVLPPRDKLVALNKARREQILSA
notes: as for B1

How the values were obtained:
[1] = biological target: T1, OsGSTU17; assay: absorbance at […] nm, initial rate […] s, non-linear regression (Hyper32); assay type: biochemical; conditions: 1.0 mM GSH fixed, NBD-Cl 0.1-1.0 mM, 25 °C; apparent Km; wild-type value 'detected again', obtained from Yang et al. [31]; read-out: NBD-Cl / K m /; cited from earlier work
[2] = substrate: O=[N+]([O-])c1ccc(Cl)c2nonc12; assay: purified protein; assay type: biochemical, Oryza sativa; conditions: 1.0 mM GSH fixed, NBD-Cl 0.1-1.0 mM, 25 °C, apparent Km

Molecule | Km [1] [µM] | Km ([2]; Km above tested range) [µM] | Vmax ([2]; Km above tested range) [µM/min/mg] | kcat ([2]; Km above tested range) [s⁻¹] | kcat/Km ([2]; Km above tested range) [M⁻¹ s⁻¹] | Km [2] [µM] | Vmax [2] [µM/min/mg] | kcat [2] [s⁻¹] | kcat/Km [2] [M⁻¹ s⁻¹]
O=[N+]([O-])c1ccc(Cl)c2nonc12 [NBD-Cl, 7-chloro-4-nitrobenzo-2-oxa-1,3-diazole] | 324 ± 16 |  |  |  |  |  |  |  | 
B1 |  | 1117 ± 22 | 0.594 | 0.999 | 894 |  |  |  | 
B2 |  |  |  |  |  | 781 ± 34 | 0.364 | 0.266 | 341
B3 |  | 1487 ± 79 | 0.896 | 1.75 | 1180 |  |  |  | 
B4 |  | 3661 ± 843 | 0.83 | 0.809 | 221 |  |  |  | 
B5 |  | 3866 ± 871 | 0.869 | 1.57 | 407 |  |  |  | 
